Data taken from article PMC9352680, “A comprehensive thermodynamic model for RNA binding by the Saccharomyces cerevisiae Pumilio protein PUF4”.

Target: T1, PUF4 RNA-binding domain (Saccharomyces cerevisiae, UniProt P25339 537-888)
T1 sequence: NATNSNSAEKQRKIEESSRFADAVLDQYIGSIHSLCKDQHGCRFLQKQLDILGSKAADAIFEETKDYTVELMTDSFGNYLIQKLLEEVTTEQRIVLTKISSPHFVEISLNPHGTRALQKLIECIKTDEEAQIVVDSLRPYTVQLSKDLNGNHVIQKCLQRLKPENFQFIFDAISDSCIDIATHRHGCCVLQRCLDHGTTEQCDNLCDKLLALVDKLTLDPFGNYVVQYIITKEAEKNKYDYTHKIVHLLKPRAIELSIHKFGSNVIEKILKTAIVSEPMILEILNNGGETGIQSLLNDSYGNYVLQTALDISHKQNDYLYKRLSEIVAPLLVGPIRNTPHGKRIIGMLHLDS
Experiment: Mg; RNA-MaP; 20 mM Na-HEPES pH 7.4, 30 mM KOAc, 0.75 mM MgCl2, 0.1% Tween-20, 5% glycerol, 0.1 mg/mL BSA, 2 mM DTT; 25 C; 0.0125-409.6 nM protein
Conditions: tags: N-His6-TEV cleaved; C-SNAP kept, Cy3B-labelled; label: tethered on chip by stalled RNA polymerase

Binder	Kd
UCUCUUAUACACUAUAAUUCUCUU (ssRNA) [Id_ii_S1_P3E.4_K3.3_C3.2_[C-2A]_H3.3_A3.1_F3.1_T3.2_[T9A]_[A10T]]	0.0435 µM
UCUCUUCUACACUAUAGUUCUCUU (ssRNA) [Id_ii_S1_P3E.4_K3.3_C3.2_H3.3_A3.1_F3.1_T3.2_[T9G]_[A10T]]	> 2.3 µM
UCUCUUCGACACUAUAGCUCUCUU (ssRNA) [Id_ii_S1_P3E.4_K3.3_C3.2_[T-1G]_H3.3_A3.1_F3.1_T3.2_[T9G]_[A10C]]	> 2.3 µM
UCUCUUACACACUAUAGAUCUCUU (ssRNA) [Id_ii_S1_P3E.4_K3.3_C3.2_[C-2A]_[T-1C]_H3.3_A3.1_F3.1_T3.2_[T9G]]	> 2.3 µM
UCUCUUCCACACUAUAGCUCUCUU (ssRNA) [Id_ii_S1_P3E.4_K3.3_C3.2_[T-1C]_H3.3_A3.1_F3.1_T3.2_[T9G]_[A10C]]	> 2.3 µM
UCUCUUCGACACUAUACUUCUCUU (ssRNA) [Id_ii_S1_P3E.4_K3.3_C3.2_[T-1G]_H3.3_A3.1_F3.1_T3.2_[T9C]_[A10T]]	> 2.3 µM
UCUCUUCAACACUAUAACUCUCUU (ssRNA) [Id_ii_S1_P3E.4_K3.3_C3.2_[T-1A]_H3.3_A3.1_F3.1_T3.2_[T9A]_[A10C]]	> 2.3 µM
UCUCUUUAUAUUUUAUCUCUU (ssRNA) [Ib_S1_P4E.1_K4.1_C4.1_H4.1_[G2A]_A4.1_[A6T]_F4.1_T4.1]	0.163 µM
UCUCUUCGACACUAUAAUUCUCUU (ssRNA) [Id_ii_S1_P3E.4_K3.3_C3.2_[T-1G]_H3.3_A3.1_F3.1_T3.2_[T9A]_[A10T]]	> 2.3 µM
UCUCUUCAACACUAUAAAUCUCUU (ssRNA) [Id_ii_S1_P3E.4_K3.3_C3.2_[T-1A]_H3.3_A3.1_F3.1_T3.2_[T9A]]	> 2.3 µM
UCUCUUAGACACUAUAAAUCUCUU (ssRNA) [Id_ii_S1_P3E.4_K3.3_C3.2_[C-2A]_[T-1G]_H3.3_A3.1_F3.1_T3.2_[T9A]]	> 2.3 µM
UCUCUUUUUAUAAUAUCUCUU (ssRNA) [Ib_S1_P4E.1_K4.1_C4.1_H4.1_[G2T]_A4.1_[T7A]_F4.1_T4.1]	1.45 µM
UCUCUUCUACACUAUACAUCUCUU (ssRNA) [Id_ii_S1_P3E.4_K3.3_C3.2_H3.3_A3.1_F3.1_T3.2_[T9C]]	2.23 µM
UCUCUUCCACACUAUACUUCUCUU (ssRNA) [Id_ii_S1_P3E.4_K3.3_C3.2_[T-1C]_H3.3_A3.1_F3.1_T3.2_[T9C]_[A10T]]	> 2.3 µM
UCUCUUUUACACUAUAUAUCUCUU (ssRNA) [Id_ii_S1_P3E.4_K3.3_C3.2_[C-2T]_H3.3_A3.1_F3.1_T3.2]	1.03 µM
UCUCUUUUUAUAGUAUCUCUU (ssRNA) [Ib_S1_P4E.1_K4.1_C4.1_H4.1_[G2T]_A4.1_[T7G]_F4.1_T4.1]	> 2.3 µM
UCUCUUCAACACUAUAGAUCUCUU (ssRNA) [Id_ii_S1_P3E.4_K3.3_C3.2_[T-1A]_H3.3_A3.1_F3.1_T3.2_[T9G]]	> 2.3 µM
UCUCUUAAACACUAUACAUCUCUU (ssRNA) [Id_ii_S1_P3E.4_K3.3_C3.2_[C-2A]_[T-1A]_H3.3_A3.1_F3.1_T3.2_[T9C]]	> 2.3 µM
UCUCUUUUACACUAUAUCUCUCUU (ssRNA) [Id_ii_S1_P3E.4_K3.3_C3.2_[C-2T]_H3.3_A3.1_F3.1_T3.2_[A10C]]	1.38 µM
UCUCUUUUACACUAUACCUCUCUU (ssRNA) [Id_ii_S1_P3E.4_K3.3_C3.2_[C-2T]_H3.3_A3.1_F3.1_T3.2_[T9C]_[A10C]]	1.91 µM

Binder	Kd
UCUCUUAGACACUAUACAUCUCUU (ssRNA) [Id_ii_S1_P3E.4_K3.3_C3.2_[C-2A]_[T-1G]_H3.3_A3.1_F3.1_T3.2_[T9C]]	> 2.3 µM
UCUCUUAAACACUAUAUUUCUCUU (ssRNA) [Id_ii_S1_P3E.4_K3.3_C3.2_[C-2A]_[T-1A]_H3.3_A3.1_F3.1_T3.2_[A10T]]	> 2.3 µM
UCUCUUUUACACUAUACAUCUCUU (ssRNA) [Id_ii_S1_P3E.4_K3.3_C3.2_[C-2T]_H3.3_A3.1_F3.1_T3.2_[T9C]]	1.14 µM
UCUCUUUAUAUCUUAUCUCUU (ssRNA) [Ib_S1_P4E.1_K4.1_C4.1_H4.1_[G2A]_A4.1_[A6C]_F4.1_T4.1]	0.672 µM
UCUCUUCUACACUAUAGCUCUCUU (ssRNA) [Id_ii_S1_P3E.4_K3.3_C3.2_H3.3_A3.1_F3.1_T3.2_[T9G]_[A10C]]	> 2.3 µM
UCUCUUAUACACUAUACUUCUCUU (ssRNA) [Id_ii_S1_P3E.4_K3.3_C3.2_[C-2A]_H3.3_A3.1_F3.1_T3.2_[T9C]_[A10T]]	0.0361 µM
UCUCUUAUACACUAUAUCUCUCUU (ssRNA) [Id_ii_S1_P3E.4_K3.3_C3.2_[C-2A]_H3.3_A3.1_F3.1_T3.2_[A10C]]	0.0406 µM
UCUCUUAUACACUAUACAUCUCUU (ssRNA) [Id_ii_S1_P3E.4_K3.3_C3.2_[C-2A]_H3.3_A3.1_F3.1_T3.2_[T9C]]	0.0349 µM
UCUCUUAGACACUAUAUUUCUCUU (ssRNA) [Id_ii_S1_P3E.4_K3.3_C3.2_[C-2A]_[T-1G]_H3.3_A3.1_F3.1_T3.2_[A10T]]	> 2.3 µM
UCUCUUCCACACUAUACCUCUCUU (ssRNA) [Id_ii_S1_P3E.4_K3.3_C3.2_[T-1C]_H3.3_A3.1_F3.1_T3.2_[T9C]_[A10C]]	> 2.3 µM
UCUCUUAGACACUAUAAUUCUCUU (ssRNA) [Id_ii_S1_P3E.4_K3.3_C3.2_[C-2A]_[T-1G]_H3.3_A3.1_F3.1_T3.2_[T9A]_[A10T]]	> 2.3 µM
UCUCUUAGACACUAUACCUCUCUU (ssRNA) [Id_ii_S1_P3E.4_K3.3_C3.2_[C-2A]_[T-1G]_H3.3_A3.1_F3.1_T3.2_[T9C]_[A10C]]	> 2.3 µM
UCUCUUCAACACUAUACCUCUCUU (ssRNA) [Id_ii_S1_P3E.4_K3.3_C3.2_[T-1A]_H3.3_A3.1_F3.1_T3.2_[T9C]_[A10C]]	> 2.3 µM
UCUCUUAUACACUAUAUAUCUCUU (ssRNA) [Id_ii_S1_P3E.4_K3.3_C3.2_[C-2A]_H3.3_A3.1_F3.1_T3.2]	0.0313 µM
UCUCUUUUACACUAUAUGUCUCUU (ssRNA) [Id_ii_S1_P3E.4_K3.3_C3.2_[C-2T]_H3.3_A3.1_F3.1_T3.2_[A10G]]	2.22 µM
UCUCUUAAACACUAUAAAUCUCUU (ssRNA) [Id_ii_S1_P3E.4_K3.3_C3.2_[C-2A]_[T-1A]_H3.3_A3.1_F3.1_T3.2_[T9A]]	> 2.3 µM
UCUCUUACACACUAUAGUUCUCUU (ssRNA) [Id_ii_S1_P3E.4_K3.3_C3.2_[C-2A]_[T-1C]_H3.3_A3.1_F3.1_T3.2_[T9G]_[A10T]]	> 2.3 µM
UCUCUUAAACACUAUAGCUCUCUU (ssRNA) [Id_ii_S1_P3E.4_K3.3_C3.2_[C-2A]_[T-1A]_H3.3_A3.1_F3.1_T3.2_[T9G]_[A10C]]	> 2.3 µM
UCUCUUAUACACUAUAGCUCUCUU (ssRNA) [Id_ii_S1_P3E.4_K3.3_C3.2_[C-2A]_H3.3_A3.1_F3.1_T3.2_[T9G]_[A10C]]	0.0457 µM
UCUCUUUUACACUAUAAUUCUCUU (ssRNA) [Id_ii_S1_P3E.4_K3.3_C3.2_[C-2T]_H3.3_A3.1_F3.1_T3.2_[T9A]_[A10T]]	> 2.3 µM

Binder	Kd
UCUCUUAGACACUAUAUCUCUCUU (ssRNA) [Id_ii_S1_P3E.4_K3.3_C3.2_[C-2A]_[T-1G]_H3.3_A3.1_F3.1_T3.2_[A10C]]	> 2.3 µM
UCUCUUAUACACUAUAUUUCUCUU (ssRNA) [Id_ii_S1_P3E.4_K3.3_C3.2_[C-2A]_H3.3_A3.1_F3.1_T3.2_[A10T]]	0.0386 µM
UCUCUUAUACACUAUAACUCUCUU (ssRNA) [Id_ii_S1_P3E.4_K3.3_C3.2_[C-2A]_H3.3_A3.1_F3.1_T3.2_[T9A]_[A10C]]	0.0462 µM
UCUCUUCUACACUAUAACUCUCUU (ssRNA) [Id_ii_S1_P3E.4_K3.3_C3.2_H3.3_A3.1_F3.1_T3.2_[T9A]_[A10C]]	> 2.3 µM
UCUCUUUUACACUAUACUUCUCUU (ssRNA) [Id_ii_S1_P3E.4_K3.3_C3.2_[C-2T]_H3.3_A3.1_F3.1_T3.2_[T9C]_[A10T]]	1.22 µM
UCUCUUAUACACUAUACGUCUCUU (ssRNA) [Id_ii_S1_P3E.4_K3.3_C3.2_[C-2A]_H3.3_A3.1_F3.1_T3.2_[T9C]_[A10G]]	0.0745 µM
UCUCUUCGACACUAUAACUCUCUU (ssRNA) [Id_ii_S1_P3E.4_K3.3_C3.2_[T-1G]_H3.3_A3.1_F3.1_T3.2_[T9A]_[A10C]]	> 2.3 µM
UCUCUUUUACACUAUAAGUCUCUU (ssRNA) [Id_ii_S1_P3E.4_K3.3_C3.2_[C-2T]_H3.3_A3.1_F3.1_T3.2_[T9A]_[A10G]]	1.52 µM
UCUCUUCCACACUAUAAUUCUCUU (ssRNA) [Id_ii_S1_P3E.4_K3.3_C3.2_[T-1C]_H3.3_A3.1_F3.1_T3.2_[T9A]_[A10T]]	> 2.3 µM
UCUCUUAUACACUAUACCUCUCUU (ssRNA) [Id_ii_S1_P3E.4_K3.3_C3.2_[C-2A]_H3.3_A3.1_F3.1_T3.2_[T9C]_[A10C]]	0.0301 µM
UCUCUUCCACACUAUACAUCUCUU (ssRNA) [Id_ii_S1_P3E.4_K3.3_C3.2_[T-1C]_H3.3_A3.1_F3.1_T3.2_[T9C]]	> 2.3 µM
UCUCUUUUUAUACUAUCUCUU (ssRNA) [Ib_S1_P4E.1_K4.1_C4.1_H4.1_[G2T]_A4.1_[T7C]_F4.1_T4.1]	1.06 µM
UCUCUUACACACUAUAUUUCUCUU (ssRNA) [Id_ii_S1_P3E.4_K3.3_C3.2_[C-2A]_[T-1C]_H3.3_A3.1_F3.1_T3.2_[A10T]]	> 2.3 µM
UCUCUUAAACACUAUAACUCUCUU (ssRNA) [Id_ii_S1_P3E.4_K3.3_C3.2_[C-2A]_[T-1A]_H3.3_A3.1_F3.1_T3.2_[T9A]_[A10C]]	> 2.3 µM
UCUCUUCCACACUAUAAAUCUCUU (ssRNA) [Id_ii_S1_P3E.4_K3.3_C3.2_[T-1C]_H3.3_A3.1_F3.1_T3.2_[T9A]]	> 2.3 µM
UCUCUUCAACACUAUAUCUCUCUU (ssRNA) [Id_ii_S1_P3E.4_K3.3_C3.2_[T-1A]_H3.3_A3.1_F3.1_T3.2_[A10C]]	> 2.3 µM
UCUCUUCCACACUAUAUUUCUCUU (ssRNA) [Id_ii_S1_P3E.4_K3.3_C3.2_[T-1C]_H3.3_A3.1_F3.1_T3.2_[A10T]]	> 2.3 µM
UCUCUUACACACUAUAACUCUCUU (ssRNA) [Id_ii_S1_P3E.4_K3.3_C3.2_[C-2A]_[T-1C]_H3.3_A3.1_F3.1_T3.2_[T9A]_[A10C]]	> 2.3 µM
